Here are results for 2 molecules from article doi:10.1101/2021.02.03.429574 (bioRxiv, 2021).

The target in assay [1] is PsaA (Pisum sativum photosystem I) (Pisum sativum (pea), UniProt P05310 16-758). The experiment in a line: cryo-EM structure.
In assay [2] the target is PsaB (Pisum sativum photosystem I) (Pisum sativum (pea), UniProt P05311 13-734). The assay is described as follows: cryo-EM structure.
The target of assay [3] is photosystem I of Chlamydomonas reinhardtii, wild type (Chlamydomonas reinhardtii, UniProt P12154 1-751; P09144 1-735; P12356 63-227). The experiment in a line: flash-induced absorbance transients at 817 nm.

Sequence of PsaA (Pisum sativum photosystem I) (P05310 16-758): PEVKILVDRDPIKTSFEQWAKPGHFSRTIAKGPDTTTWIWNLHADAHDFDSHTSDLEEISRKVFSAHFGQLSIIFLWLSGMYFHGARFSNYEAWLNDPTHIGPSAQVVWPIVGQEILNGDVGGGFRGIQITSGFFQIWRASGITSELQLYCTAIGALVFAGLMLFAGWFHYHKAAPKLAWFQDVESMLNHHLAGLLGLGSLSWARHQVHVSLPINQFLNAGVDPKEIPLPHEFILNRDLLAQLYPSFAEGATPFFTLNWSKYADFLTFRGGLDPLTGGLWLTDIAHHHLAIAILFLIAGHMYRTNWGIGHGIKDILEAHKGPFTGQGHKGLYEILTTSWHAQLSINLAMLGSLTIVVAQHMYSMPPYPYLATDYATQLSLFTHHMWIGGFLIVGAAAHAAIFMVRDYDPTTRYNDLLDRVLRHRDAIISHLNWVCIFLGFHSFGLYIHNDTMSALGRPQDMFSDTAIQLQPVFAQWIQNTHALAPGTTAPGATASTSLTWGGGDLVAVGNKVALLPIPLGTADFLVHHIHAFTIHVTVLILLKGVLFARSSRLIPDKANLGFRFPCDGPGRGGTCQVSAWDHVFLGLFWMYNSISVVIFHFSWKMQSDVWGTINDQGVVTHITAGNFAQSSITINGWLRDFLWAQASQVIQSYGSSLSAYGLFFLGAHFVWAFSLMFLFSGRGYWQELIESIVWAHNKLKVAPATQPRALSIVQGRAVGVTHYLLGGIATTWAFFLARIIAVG
Sequence of PsaB (Pisum sativum photosystem I) (P05311 13-734): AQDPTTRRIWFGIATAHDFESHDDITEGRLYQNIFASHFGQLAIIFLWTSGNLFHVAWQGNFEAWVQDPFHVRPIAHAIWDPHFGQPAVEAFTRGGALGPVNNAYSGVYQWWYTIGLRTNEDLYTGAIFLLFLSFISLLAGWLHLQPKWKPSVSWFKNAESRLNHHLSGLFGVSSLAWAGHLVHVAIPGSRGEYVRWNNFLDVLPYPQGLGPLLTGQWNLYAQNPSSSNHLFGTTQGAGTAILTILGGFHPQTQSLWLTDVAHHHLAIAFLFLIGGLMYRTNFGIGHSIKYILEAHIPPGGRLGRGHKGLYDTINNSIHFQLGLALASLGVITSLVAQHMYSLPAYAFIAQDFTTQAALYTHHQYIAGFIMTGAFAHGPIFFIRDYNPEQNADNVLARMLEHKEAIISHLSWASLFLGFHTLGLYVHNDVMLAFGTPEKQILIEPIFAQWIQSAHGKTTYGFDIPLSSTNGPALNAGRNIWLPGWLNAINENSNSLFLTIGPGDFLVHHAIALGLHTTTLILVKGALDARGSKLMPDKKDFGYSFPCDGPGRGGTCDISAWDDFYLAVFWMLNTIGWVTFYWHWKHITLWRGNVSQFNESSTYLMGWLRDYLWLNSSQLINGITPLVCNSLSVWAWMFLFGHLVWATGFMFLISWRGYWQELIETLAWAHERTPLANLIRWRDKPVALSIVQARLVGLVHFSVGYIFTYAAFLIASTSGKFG

B1: plastocyanin (Pisum sativum), reduced (natural protein, Pisum sativum (pea), UniProt P16002 70-168, looked up)
chain: VEVLLGASDGGLAFVPSSLEVSAGETIVFKNNAGFPHNVVFDEDEIPAGVDASKISMPEEDLLNAPGETYSVKLDAKGTYKFYCSPHQGAGMVGQVTVN
For the molecule B1, the binding result in assay [1] and in assay [2] was “binds” throughout.

B2: plastocyanin used with Chlamydomonas reinhardtii PSI (natural protein, UniProt P18068 48-145, looked up)
chain: DATVKLGADSGALEFVPKTLTIKSGETVNFVNNAGFPHNIVFDEDAIPSGVNADAISRDDYLNAPGETYSVKLTAAGEYGYYCEPHQGAGMVGKIIVQ
What is called Kd is the equilibrium constant for the complex coming apart. Higher therefore signals weaker binding. B2 yielded a Kd in assay [3] of 88 µM.
